This note sets out measurements from the DeepSol protein solubility set.

This series can be described thus: soluble on expression in E. coli; label from the status in PepcDB or PDB records.
As for “MRGYLGKAQQNALINEAQSYPLTRPQIQVFGRYHAIPRQQVWYGDLGCDYLYSGLFIRALPWPKYLQKLRDKLQRDFELGSNGVLVNRYADGQDCMGAHSDDEPEIAHGSDIASISLGATRDFVIKHKHSKQKCCISLHSGDLLIMHWPMQRDWLHSVPKRLKVTEPRWNYTFRQLVVNYHGLEHHHHHH”, the “soluble on expression in E. coli” value is reported as “not soluble”.
In the case of “PTQSPSEFIAELARCAQPIAQANDLYASVMMAQAIVESGWGASTLSKAPNYNLFGIKGSYNGQSVYMDTWEYLNGKWLVKKEPFRKYPSYMESFQDNAHVLKTTSFQAGVYYYAGAWKSNTSSYRDATAWLTGRYATDPSYNAKLNNVITAYNL”, the “soluble on expression in E. coli” value is given as “not soluble”.
As for “MGRRRSHERRDLPPNLYIRNNGYYCYRDPRTGKEFGLGRDRRIAITEAIQANIELFSGHKHKPLTARINSDNSVTLHSWLDRYEKILASRGIKQKTLINYMSKIKAIRRGLPDAPLEDITTKEIAAMLNGYIDEGKAASAKLIRSTLSDAFREAIAEGHITTNHVAATRAAKSEVRRSRLTADEYLKIYQAAESSPCWLRLAMELAVVTGQRVGDLCEMKWSDIVDGYLYVEQSKTGVKIAIPTALHIDALGISMKETLDKCKEILGGETIIASTRREPLSSGTVSRYFMRARKASGLSFEGDPPTFHELRSLSARLYEKQISDKFAQHLLGHKSDTMASQFRDDRGREWDKIEIK”, the “soluble on expression in E. coli” value is reported as “soluble”.
In the case of “MIHQFHSEQQFRSLGMCVVSTFGSGRACTFIGALYAIHQLNNGVEPNIFEIMKTIKQQRPGAIESFPQYSGVYAIVLDYISRKRGGKSDPVNKYINRFLADLTEILPACSTLPVMNPSTELH” it was “not soluble”.
In the case of “MEKIIITATAESIEQVKALLAAGVDRIYVGEANYGLRLPHNFSYDELRQIAKLVHDAGKELTVACNALMHQDMMDQIKPFLDLMIEIAVDYLVVGDAGVFYVNKRDGYNFKLIYDTSVFVTSSRQVNFWGQHGAVESVLAREIPSAELFTLAENLEFPAEVLVYGASVIHHSKRPLLENYYHFTKIDDEVSRERGLFLAEPGDASSHYSIYEDNHGTHIFINNDIDMMSKLGELYAHGLTHWKLDGIYCPGDDFVAITKLFIQAKTLLEAGQFTQEEAEKLDQAVHAHHPAGRGLDTGFYEFDPKTVK” it was “not soluble”.
Turning to “METTWDLTPLFPGLESPEFQRAWEGLKGRIGELKGLLEREAPLPEVLAALDAFLEEATPLRAYLYARYSADTRDEAALAKLSELEILFLDFQRLRPRLTRYLALKDPEEAGPHRLLVEEAKEEALHMMPEGEEVLAAELSLSGRAAWDKLHESLTSQITAVVDGEEMPITKVRNLYFHPEEEVRKKAYEAELKAWEAHEVPLAFALNGVKGEASVLNRRRGYRDDLEPTLHENRITRKALKAMQEAVGESLPLFRRYFLLKARALGKERLDWWDLFAPLGRGRRWSLEEARAFIPAKLAALVPNAAKVAEMAFHERWMDLLPRKGKVGGAYCMARGGGKSLILANYEESFESVSTLAHELGHAYHNFALKEAPASLRRVPMTLAETASIMNETLVVEAALKEASPEEGLLILDAYLQGAAQVVVDIHSRFLFESWVFQRRKARELSPREFKELMLKAQEEAYGEALATRHPYMWAVKGHYYGADFYNYPYTFGLLFGLAVYQEAKEDPGFAGRYEALLAESGRYRAKELALRFGFDLESVDFWRRGIRVLEEKVAQLERMISP”, the “soluble on expression in E. coli” value is recorded as “soluble”.
On to “NIGSGTDEKTATARAKVVDWCNELVIASPSTKCELLAKVQETVLGSCAELAEEFLESVLSLAHDSNMEVRKQVVAFVEQVCKVKVELLPHVINVVSMLLRDNSAQVIKRVIQACGSIYKNGLQYLCSLMEPGDSAEQAWNILSLIKAQILDMIDNENDGIRTNAIKFLEGVVVLQSFADEDSLKRDGDFSLADVPDHCTLFRREKLQEEGNNILDILLQFHGTTHISSVNLIACTSSLCTIAKMRPIFMGAVVEAFK”, for which the “soluble on expression in E. coli” value is listed as “soluble”.
“MYETIVSSRGSSFFVSQGKTGEQVYRCQVNREQCPNTLPIDKHIDLVRKYIRAFLYRFAGMTSLNETSSRRMIFLVVPSFCVIEIIP”: the “soluble on expression in E. coli” value is listed as “not soluble”.
In the case of “MRITQEQAEAIFCEDLKQFGKTVEQSVKVCLTDAQIAALVSFCYNVETQAFCKSTLLKKLNNGAYESVPAELQKWNKVGGKAIQGFVNRRAAEAGLWAKGSYVCFNTQRVETKNTIGLLKIETLAPMIGSCSGLGGLLVGNGPLPALWF” it was “not soluble”; in that of “MKTSETTRPTLSSLPVGKRAEEGTPHNLFTVIGLDDSPSPYLSPSVKALIDQGCVFSGGVRHHDIVAPLLPAGAKWIDITVPLDQVFARYAGHPHIIVFASGDPIFFGFANTIRRRLPDAEIRLYPSFNSLQTLAHRLVMPYDDMRTISLTGRPWHGFDRALIERTPKMGILTDREHTPATIASRMLDYGYNDYTMYIGEHLGHPTKELIRRMTLEEAAAETFEYPNCLILTTGDGLQSVNGGILSPRFFGIPDEAFELLDGRARMITKAPIRLLTLSALELNRRTSFWDIGFCTGSVSIEARLQFPHLHVTSFEIRPEGKRLMEINSRRFGTPGITTVIGDFLETDTAIYPCPDAVFIGGHGGRLKEIISRVRHKLLPGARIVFNSVSEESKTHFIEAANESGLCFLGGTRVAINEYNPIEILVASAPDSPYL”, “not soluble”.
Regarding “GSHMEVNLRMSWWGGNGRHQVTLKALEEFHKQHPNINVKAEYTGWDGHLSRLTTQIAGGTEPDVMQTNWNWLPIFSKDGTGFYNLFSVKEQLDLAQFDPKELQQTTVNGKLNGIPISVTARIFYFNDATWAKAGLEYPKTWDELLAAGKVFKEKLGDQYYPVVLEHQDTLALIRSYMTQKYNIPTIDEANKKFAYSPEQWVEFFTMYKTMVDNHVMPSTKYYASFGKSNMYEMKPWINGEWAGTYMWNSTITKYSDNLTKPAKLVLGPYPMLPGAKDAGLFFKPAQMLSIGKSTKHPQESAMLINFLLNSKEGVEALGLERGVPLSATAVTQLRASGVIKDEDPSVAGLNMALELPHKMTTSPYFDDPQIVSLFGDAIQYIDYGQKTVQETAEYFNKQGDRILKRAMR”, the “soluble on expression in E. coli” value is “soluble”.
In the case of “AHHHHHHGSEYTIVDGEEYIEEIKKLDREISYSFVRFPISYEEYEERHEELFESLLSQGEHKFFVALNERSELLGHVWICITLDTVDYVKIAYIYDIEVVKWARGLGIGSALLRKAEEWAKERGAKKIVLRVEIDNPAVKWYEERGYKARALIMEKPI” it was “soluble”; in that of “MDLSVTHMDDLKTVMEDWKNELLVYKFALDALDTKFSIISQEYNLIHGHNPIEHTKSRVKSFESIVNKLMRKGCEITTKEMKEHIHDIAGVRIICSFISDIYNVVNVLKQHEDLRIVKVKDYIQTPKPNGYRSLHLIIEMPVNLTNRVEYVKAEIQIRTIAMDFWASLEHKIYYKLNNDVPKQLTDELKEAAEIAHYLDEKMLGIKKEVD”, “not soluble”; in that of “ASIKENSYFAGGVKSLGFNQHGQDVSVGVMLPGEYTFGTQAPERMTVVKGALVVKRVGEADWTTYSSGESFDVEGNSSFELQVKDATAYLCEYL”, “soluble”.
In the case of “MQSTVAFISHRSTHKDFVRKIVDTVKRDNCIVDEFDFYPATKTVNEIVRNLNFAPIFVLLISKDALESDWIKLEMSKARQLYDTGVIREFMPFIIEEGVKLEELPSWMTRDWSLNIKTITSPKIIGQFIIETQRKIRCVGNNAYGNWINTFIGRSNELDEFQRAMYDSVYMPHRSLIVSGKPGSGRTRFIQKCIQDSSGLSFIPEGFQIKLPQKTYLDNFILQLHEGLGFSKASYEDILKLDHEHQITKCVSYINQIINAHSFLLIEDEMSFVSYDGTISEWGKEIISHPAMIDSLKIFISSRVKPRYSELRAYPQIIHINLSGFTKDERKRLFVNCCRYYNVQLNDSDVDFFVDRLQSSPQQLEQAVREIKDKNVRFAKKDIKNLIAIGDEVFSRVISWFKGDETALTLAKVLAEVDMISFDLLEQLYEEDYPKIEQLVNNFESLSILDFYGPGGNNISLDGGVSDYIRRSKLDLDPIMKTRIEEIIFNKIDTAEDDLGELSIFLHDLRKQLLSGKGFAYVMPSIVISTVIDLYNQGSYDSVKDICLHALEHCSSYTEEPLQELYYRLCQVLARMKDRIFFTYIDKIKDKGSKDFLYGFYYRYKEDYSKAEEYLLKALDFNSNMQIARRELVNVYLNQEKYTKALPLAKENYNRKSTNSYHIEAYFRCLLNHYPWNTETEDTLNRLLKEMEENFSKRKDELLASMQLEYFIKSRNHTKEEIKEKIQETLIVYPNSPQVYRIKEEFERDKSRFCKSCNC” it was “not soluble”; in that of “MGHHHHHHSHMGVAGTPGLPESPDKSPVGRKKSKGLATRLSRRRVSCRELGRPDCDGWLLLRKAPGGFMGPRWRRRWFVLKGHTLYWYRQPQDEKAEGLINVSNYSLESGHDQKKKYVFQLTHDVYKPFIFAADTLTDLSMWVRHLITCISKYQSP”, “soluble”.
In the case of “QKNPDSYNGAVRENYTWSQDYTDLEVRVPVPKHVVKGKQVSVALSSSSIRVAMLEENGERVLMEGKLTHKINTESSLWSLEPGKCVLVNLSKVGEYWWNAILEGEEPIDID” it was “soluble”; in that of “MGRYIGPVCRLCRREGVKLYLKGERCYSPKCAMERRPYPPGQHGQKRARRPSDYAVRLREKQKLRRIYGISERQFRNLFEEASKKKGVTGSVFLGLLESRLDNVVYRLGFAVSRRQARQLVRHGHITVNGRRVDLPSYRVRPGDEIAVAEKSRNLELIRQNLEAMKGRKVGPWLSLDVEGMKGKFLRLPDREDLALPVNEQLVIEFYSR”, “soluble”.
With “SAEGSRGGPTCSGVGGRQDPVSGSGGCNFPEYELPELNTRAFHVGAFGELWRGRLRGAGDLSLREPPASALPGSQAADSDREDAAVARDLDCSLEAAAELRAVCGLDKLKCLEDGEDPEVIPENTDLVTLGVRKRFLEHREETITIDRACRQETFVYEMESHAIGKKPENSADMIEEGELILSVNILYPVIFHKHKEHKPYQTMLVLGSQKLTQLRDSIRCVSDLQIGGEFSNTPDQAPEHISKDLYKSAFFF”, the “soluble on expression in E. coli” value is given as “soluble”.
Turning to “MGSDKIHHHHHHMKLKNDELTVEFKPEGATISSIRDRDGVEYLWQGNPEYWGGQAPVLFPICGSLRNDGATFQVGEKTISGSMPRHGIVRKRTFDLVKHTENEIQFRILSDDEMLKQYPFPFELQLTYRLDGKRLETEYAIRYLGELDAMPFFIGGHPGFNCPLLEDEAFDDYYLEFELEEDCTIPESFPETGLLDFSKRQPMLSKTRILDLNYELFQHDALTFDNLKSRKVALKTKNHQKGLKVSFEDFPFLVVWTTTNKGPFIALEPWSGLSTSLTETDNFIDKTHVTYVEKGEVSRKAFTIEIC”, the “soluble on expression in E. coli” value is “not soluble”.
With “MTPRSLVRIVGVVVATTLALVSAPAGGRAAHADPCSDIAVVFARGTHQASGLGDVGEAFVDSLTSQVGGRSIGVYAVNYPASDDYRASASNGSDDASAHIQRTVASCPNTRIVLGGYSQGATVIDLSTSAMPPAVADHVAAVALFGEPSSGFSSMLWGGGSLPTIGPLYSSKTINLCAPDDPICTGGGNIMAHVSYVQSGMTSQAATFAANRLDHAG”, the “soluble on expression in E. coli” value is “not soluble”.
In the case of “MAHHHHHHMQPRHFHVCNFLLTCSCERGHPRVRCLRFAALRFAKPHFALLCRTSLCFFFATPTRAELATDGLKGRIYEVNLADLNNDEDQAHKKIKLCCDHIINKDCYTDFCGLSITRDKLCSLIRKGYTLIEGYTDVKTIDNYQLRMFCIAFTKKRPNQTKTTCYAQTSQIKKIRKKMVDIMNAEASKVMLKDLVKKFIPESIGKEVEKQCKKIYPLQNVLIRKVKILKRPKLDISKLMELHTDSKEDAGKNVKSLPESKEATNILSAELKH” it was “soluble”.
For “MGEQPIFTTRAHVFQIDPSTKKNWVPASKQAVTVSYFYDVTRNSYRIISVDGAKVIINSTITPNMTFTKTSQKFGQWADSRANTVFGLGFSSELQLTKFAEKFQEVREAAR”, the “soluble on expression in E. coli” value is recorded as “soluble”.
